Experimental findings from patent US20100166734A1 (published 2010) are described below.

The target in assay [1] is T1, human serum albumin (human, UniProt P02768 25-609).
T1 construct: also called HSA
The assay can be described thus: SPR (Biacore), ratio of the off rates at the two pH.

Assay [2] concerns the target T1, human serum albumin. Briefly: SPR (Biacore), HSA amine-coupled on CM5, pH 5.
For assay [3], the target named is T1, human serum albumin. Briefly: SPR (Biacore), HSA amine-coupled on CM5, pH 7. For orientation: In SPR one partner is held on a chip, and binding of the other changes the refractive index at the surface.
In assay [4] the target is T2, ectodomain of human pIgR (R&D Systems Cat #2717-PG) (human, UniProt P01833 19-638).
T2 construct: extracellular domain; Immobilised on Maxisorp plates at 5 ug/ml; also called pIgR ectodomain
T2 sequence (P01833 19-638): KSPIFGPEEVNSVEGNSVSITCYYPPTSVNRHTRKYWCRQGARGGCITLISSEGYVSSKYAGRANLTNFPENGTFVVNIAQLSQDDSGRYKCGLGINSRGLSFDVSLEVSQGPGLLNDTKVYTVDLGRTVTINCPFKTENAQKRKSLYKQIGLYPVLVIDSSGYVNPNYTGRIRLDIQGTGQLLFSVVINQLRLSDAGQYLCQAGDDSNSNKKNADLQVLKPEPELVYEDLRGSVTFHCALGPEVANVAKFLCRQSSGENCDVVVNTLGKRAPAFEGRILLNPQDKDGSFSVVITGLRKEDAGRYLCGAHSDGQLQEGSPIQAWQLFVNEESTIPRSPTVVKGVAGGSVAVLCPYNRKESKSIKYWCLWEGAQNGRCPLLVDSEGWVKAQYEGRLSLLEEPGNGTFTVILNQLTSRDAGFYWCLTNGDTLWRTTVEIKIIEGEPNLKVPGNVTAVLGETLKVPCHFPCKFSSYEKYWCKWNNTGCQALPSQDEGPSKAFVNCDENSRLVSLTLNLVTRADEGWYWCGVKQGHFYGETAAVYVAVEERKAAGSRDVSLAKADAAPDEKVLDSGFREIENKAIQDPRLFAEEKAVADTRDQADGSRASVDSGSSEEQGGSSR
Briefly: competition ELISA, dilution series of purified Nanobody against 1 ug/ml IgA on immobilised pIgR ectodomain. Background: In an ELISA, binding on a coated surface is turned into a signal by an enzyme label.

The target of assay [5] is T3, human pIgR overexpressed in MDCK cells (human, UniProt P01833 19-764).
T3 construct: whole, on cells; also called hpIgR; human polymeric immunoglobulin receptor
T3 sequence (P01833 19-764): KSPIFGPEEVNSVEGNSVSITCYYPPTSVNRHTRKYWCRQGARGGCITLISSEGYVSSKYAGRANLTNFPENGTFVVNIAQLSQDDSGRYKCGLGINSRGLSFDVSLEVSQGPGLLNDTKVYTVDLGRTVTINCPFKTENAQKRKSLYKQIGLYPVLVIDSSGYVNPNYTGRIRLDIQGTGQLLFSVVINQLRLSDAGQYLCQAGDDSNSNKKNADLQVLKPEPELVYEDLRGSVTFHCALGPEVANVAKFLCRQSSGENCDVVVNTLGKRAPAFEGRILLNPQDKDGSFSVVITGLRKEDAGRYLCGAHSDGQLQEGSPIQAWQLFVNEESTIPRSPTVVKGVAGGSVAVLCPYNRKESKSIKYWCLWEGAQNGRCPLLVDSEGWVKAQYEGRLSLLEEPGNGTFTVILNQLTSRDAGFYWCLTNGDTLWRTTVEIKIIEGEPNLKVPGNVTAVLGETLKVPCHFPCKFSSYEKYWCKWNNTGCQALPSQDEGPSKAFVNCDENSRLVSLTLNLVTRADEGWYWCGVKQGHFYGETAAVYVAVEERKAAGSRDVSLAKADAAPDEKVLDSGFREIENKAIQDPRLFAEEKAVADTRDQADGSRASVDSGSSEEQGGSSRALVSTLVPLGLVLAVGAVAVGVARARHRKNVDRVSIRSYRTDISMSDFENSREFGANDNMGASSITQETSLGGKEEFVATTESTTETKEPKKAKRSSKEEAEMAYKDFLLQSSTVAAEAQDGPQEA
The assay can be described thus: immunofluorescence on MDCK cells overexpressing human pIgR, 3 uM purified Nanobody at 4C, anti-myc detection.

For assay [6], the target named is T3, human pIgR overexpressed in MDCK cells. Briefly: immunoprecipitation from cell lysates with His-tagged nanobodies on talon beads, blot with a-hSC.

B1: 4C3 (VHH)
VHH: EVQLVESGGGLVQAGGSLRLSCAASGRTFSSYAMAWFRQAPGEEREFVATISVSGGYTYYADSVKGRFTISRDNAKNTVYLQMNTLKPEDTAVYYCAAGDSSSWLEHMYDYWGQGTQVTVSS
notes: Tested as periplasmic extract
The term koff denotes the rate constant with which the complex falls apart. A lower koff goes with slow dissociation. Regarding B1, the “Ratio pH 7/pH 5” value in the assay with human serum albumin [1] is 3.35. Also, the koff with human serum albumin [2] is 0.00375 s⁻¹; with human serum albumin [3], 0.00112 s⁻¹.

B2: 4D4 (VHH)
VHH: EVQLVESGGGLVQAGDSLRLSCAASGRTFSPYVMGWFRRAPGKEREFVGGINWSGSNTWYTDSVKGRFTISRDNVKNMVYLQMNSLKPEDTAVYYCAAGSGVGMYRYERQYDYWGQGTQVTVSS
notes: Tested as periplasmic extract
As to B2, the “Ratio pH 7/pH 5” value with human serum albumin [1] came out at 2.76. The results for the koff in the assay with human serum albumin [2] and in the assay with human serum albumin [3] were 0.0166 s⁻¹ and 0.00602 s⁻¹, respectively.

B3: 1E7 (VHH)
VHH: EVQLVESGGGLVQAGGSLRLSCAASGRTFSNYVMGWFRQAPGKEREFVAAISWSGVTTYHYSADSVKGRFTTSRDNDRNTAHLQMNSLKPEDTAVYYCAARGRTGSDPRKGDDYDYWGQGTQVTVSS
notes: Carries a myc tag (detected with anti-myc)
As to B3, the binding result in assay [4] and in assay [5] was “binds” in each case.

B4: 4A2 (VHH)
VHH: EVQLVESGGGLVQAGGSLRLSCAASGLSFSSYAMGWFRQAPGKEREFVAAIRRREGNSYYADSVKGRFTISRDSAKNTVYLQMNSLKPEDTALYSCAATAPHYSGSFAYAGGYDYWGQGTQVTVSS
notes: Tested as periplasmic extract
Turning to B4, the “Ratio pH 7/pH 5” value in the assay with human serum albumin [1] was found to be 3.54. Besides, the figures for the koff with human serum albumin [2] and with human serum albumin [3] were 0.0227 s⁻¹ and 0.00642 s⁻¹, respectively.

B5: 4B7 (VHH)
VHH: EVQLVESGGGLVQAGGSLRLSCAASGFTFDDYAIGWFRQAPGKEREGVSCISSRDGITYYADSVKGRFTISSDNAKNTVYLQMNSLKPEDTAVYYCAADLVGSFPCPVAAYDYWGQGTQVTVSS
notes: Carries myc and His tags
Take B5: the binding result in assay [6] is “binds”.

B6: 4D3 (VHH)
VHH: EVQLVKSGGGLVQPGGSLRLSCAASGFTFSHYQMSWVRQAPGKDVEWVSSISMLGGGTTYADSVKGRFTISRDNAKSTLVLQMNNLKVEDTAVYYCARGFSGNYYRADLGQGTQVTVSS
notes: Tested as periplasmic extract
For B6, the “Ratio pH 7/pH 5” value with human serum albumin [1] was determined as 2.42. For the same molecule, the koff was 0.0137 s⁻¹ in the assay with human serum albumin [2] and 0.00565 s⁻¹ in the assay with human serum albumin [3].

B7: 1D2 (VHH)
VHH: EVQLVESGGGLVQPGGSLRLSCAASGFTLDYYAIGWFRRAPGKEREGVSCTSSSDGSTYYADSVKGRFTISRDNAKNTVYLQMNSLKPEDTAVYYCATTFGDACTVVAGIPDQYDFGSWGQGTQVTVSS
notes: Carries myc and His tags
In the case of B7, the binding result in assay [4] and in assay [5] was “binds” in each case.

B8: 4D9 (VHH)
VHH: EVQLVESGGGLVQPGGSLRLSCAASGFTLDYYDIGWFRQAPGKEREGVSCTSSSDGSTYYADSVKGRFTISRDNAKNTVYLQMNSLKPEDTAVYYCATTFGDACTVVAGIPDQYDFGSWGQGTQVTVSS
Take B8: the binding result in assay [4] was “binds”.

B9: 4B8 (VHH)
VHH: EVQLVESGGGLVQAGGSLRLSCAASGGTYSGNAMAWFRQAPGKEREFVAGIDWSSENTRYIDSVKGRFTISRDNAKNTMYLQMNSLKPEDTAVYYCAAGTSWGALASRLEAAYSSWGQGTQVTVSS
notes: Tested as periplasmic extract
In the case of B9, the “Ratio pH 7/pH 5” value in the assay with human serum albumin [1] was found to be 2.43. Moreover, the koff with human serum albumin [2] was 0.0018 s⁻¹; with human serum albumin [3] it was 0.000741 s⁻¹.

B10: 4B5 (VHH)
VHH: EVQLVESGGGLVQAGDSLRLSCAASGRTYSRNAMAWFRQAPGKEREFVAGIDWSSENTRYIDSVKGRFTISRDNAKSTMYLQMNSLKPEDTAVYYCAAGTSWGALASRLEAAYSSWGQGTQVTVSS
notes: Tested as periplasmic extract
On to B10, for which the “Ratio pH 7/pH 5” value with human serum albumin [1] turned out to be 2.32. Moreover, the koff amounted to 0.00403 s⁻¹ in the assay with human serum albumin [2] and 0.00174 s⁻¹ in the assay with human serum albumin [3].

B11: 4B6 (VHH)
VHH: KVQLVESGGGLVQVGGSLRLSCVASGRTYGGNAMAWFRQAPGKEREFVAGIDWSSENTRYTDSVKGRFTISRDNAKNTMYLQMNSLKPEDTAVYYCAAGTSWGALASRLENAYSAWGQGTQVTVSS
notes: Tested as periplasmic extract
On to B11, for which, in the assay with human serum albumin [1], the “Ratio pH 7/pH 5” value was found to be 3.23. The figures for the koff in the assay with human serum albumin [2] and with human serum albumin [3] were 0.00119 s⁻¹ and 0.000368 s⁻¹, respectively.

B12: 4B10 (VHH)
VHH: EVQLVESGGGLVQAGDSLRLSCAASGRTFSSYAMGWFRQAPGTERQFVARITGKGDSTDYADSVRGRFTISRDNAKNTVYLQMNSLKPEDTAVYYCAADAFNSLLQAGRAEYWGQGTQVTVSS
notes: Tested as periplasmic extract
For the molecule B12, the “Ratio pH 7/pH 5” value in the assay with human serum albumin [1] is 0.87. Besides, the koff with human serum albumin [2] was determined as 0.0434 s⁻¹; in the assay with human serum albumin [3], 0.0499 s⁻¹.

B13: 4B11 (VHH)
VHH: EVQLVESGGGLVQPGGSLRLSCAASGFTLDYYAIGWFRQAPGKEREGVSCISSSDMSDGITYYADSVKGRFTSSRDNVKNTVYLQMNSLKPEDTAVYYCATTFGDACTVVAGIPDQADFDSWGQGTQVTVSS
notes: Carries myc and His tags
For the molecule B13, the binding result in assay [4] and in assay [5] was “binds” throughout.

B14: 4C4 (VHH)
VHH: EVQLVESGGGLVQAGDSLRLSCAASGRPFMSYVMGWFRRAPGKEREFVGGINWGSGNTWYTDSVLGRFTISRDNAKNTVYLQMNSLKPEDTAVYYCATAAGVGYYRYERQYDYWGQGTQVTVSS
notes: Tested as periplasmic extract
In the case of B14, the “Ratio pH 7/pH 5” value with human serum albumin [1] was 2.42. Further, the off-rate (koff) with human serum albumin [2] worked out at 0.00121 s⁻¹; with human serum albumin [3] it was 0.000499 s⁻¹.

B15: 4C5 (VHH)
VHH: EVQLVESGGGLVQAGDSLRLSCAASGRPFSAYVMGWFRRAPGKEREFVGGINWNSANTWYTDSVLGRFTISKDNAKNTVYLQMNSLKPEDTAVYYCAAAGGVGYYRYERQYDYWGQGTQVTVSS
notes: Tested as periplasmic extract
Regarding B15, the “Ratio pH 7/pH 5” value in the assay with human serum albumin [1] is 2.44. The koff in the assay with human serum albumin [2] turned out to be 0.00132 s⁻¹; with human serum albumin [3] it was 0.000541 s⁻¹.

B16: 4D7 (VHH)
VHH: EVQLVESGGGLVQAGDSLRLSCAASGRPFSSYVMGWFRRAPGKEREFVGGINWNSGNTWYSDSVLGRFTISRDNAKNTVDLQMNSLKPEDTAVYYCATASGVGYYRYERQYDYWGQGTQVTVSS
notes: Tested as periplasmic extract
On to B16, for which the “Ratio pH 7/pH 5” value in the assay with human serum albumin [1] is 2.42. The figures for the koff with human serum albumin [2] and with human serum albumin [3] were 0.00158 s⁻¹ and 0.000653 s⁻¹, respectively.

B17: 4D10 (VHH)
VHH: EVQLVESGGGLVQAGDSLRLSCTASERPFMSYVMGWFRRAPGKDREFVGAITWSGINTWYSDSVLGRFTISRDNAKNTVYLQMNSLKPEDTAVYYCAVADGVGLYRYERQYDYWGQGTQVTVSS
notes: Tested as periplasmic extract
As for B17, in the assay with human serum albumin [1], the “Ratio pH 7/pH 5” value was determined as 6.52. The results for the off-rate (koff) in the assay with human serum albumin [2] and with human serum albumin [3] were 0.00341 s⁻¹ and 0.000523 s⁻¹, respectively.

B18: 4A6 (VHH)
VHH: EVQLVESGGGLVQPGGSLRLSCAASPFTLDYYAIGWFRQAPGKEREGVSCSTSHGKTYHADSVKGRFTISRDNAKNTVYLQMNSLKPEDTAVYYCAAGACMGGSGYEADFGSWGQGTQVTVSS
notes: Tested as periplasmic extract
For the molecule B18, the “Ratio pH 7/pH 5” value with human serum albumin [1] came to 5.77. Further, the koff in the assay with human serum albumin [2] was determined as 0.00999 s⁻¹; with human serum albumin [3] it was 0.00173 s⁻¹.

B19: 4B1 (VHH)
VHH: EVQLVESGGGLVQPGGSLRLSCVAAGFTLDYYAIGWFRQAPGKEREGVSCITSDGRTYYADSVKGRFTISRDMAKKMVYLQMNSLKPEDTAVYYCAAGACMGGSGYEADFGSWGQGTQVTVSS
notes: Tested as periplasmic extract
B19: the “Ratio pH 7/pH 5” value with human serum albumin [1] came out at 0.88. Besides, the koff in the assay with human serum albumin [2] turned out to be 0.00773 s⁻¹; with human serum albumin [3], 0.00875 s⁻¹.

B20: 4C8 (VHH)
VHH: EVQLVESGGGLVQAGDSLRLSCAASGRTYTPYVMGWFRRAPGKEREFVGAVSWSGTNTWYTDSVKGRFTISRDNAKNTVYLQMNSLKPEDTAVYYCAAGDGVGIYRYEHQYDYWGQGTQVTVSS
notes: Tested as periplasmic extract
On to B20, for which the “Ratio pH 7/pH 5” value with human serum albumin [1] turned out to be 3.35. The koff in the assay with human serum albumin [2] was found to be 0.00209 s⁻¹; with human serum albumin [3], 0.000624 s⁻¹.

B21: 4D5 (VHH)
VHH: EVQLVESGGGLVQAGGSLRLSCAASGLSFSKYAMGWFRQAPGKQREYVAVISSSDTTYYTNSAKGRFTISRDNAENTVYLQMNSLKPEDTAVYFCAADSYVTALQTLTQISYWGQGTQVTVSS
notes: Tested as periplasmic extract
In the case of B21, the “Ratio pH 7/pH 5” value with human serum albumin [1] came to 1.29. The off-rate constant (koff) in the assay with human serum albumin [2] was 0.0263 s⁻¹; with human serum albumin [3], 0.0204 s⁻¹.

B22: 4C11 (albumin binder) (VHH)
VHH: EVQLVESGGGLVQAGGSLRLSCAASGLSFSRYAMGWFRQAPGKQREYVAVISSSDTTYYTNSAKGRFTISRDNAENTVYLQMNSLKPEDTAVYFCAADSFVTALQTLTQINYWGQGTQVTVSS
notes: Tested as periplasmic extract
With B22, the “Ratio pH 7/pH 5” value with human serum albumin [1] was 1.19. Further, the results for the koff with human serum albumin [2] and in the assay with human serum albumin [3] were 0.0312 s⁻¹ and 0.0263 s⁻¹, respectively.

B23: 4A9 (VHH)
VHH: EVQLVESGGGLVQAGGSLRLSCEASGFTLDYSGVGWFRQAPGKERELVSCISRGGDRAGYANSVKGRFTMSRDNAKNILYLQMNSLKPEDTAVYYCAATHSGSGCYDGAIDYWGKGTLVTVSS
notes: Tested as periplasmic extract
Consider B23, for which, in the assay with human serum albumin [1], the “Ratio pH 7/pH 5” value was 0.54. The koff with human serum albumin [2] was 0.00701 s⁻¹; with human serum albumin [3], 0.013 s⁻¹.

B24: 4C9 (VHH)
VHH: EVQLVESGGGLVQAGDSLRLSCTASERPFSTYVMGWFRRAPGKEREFVGGITWSGINAWYTDSVLGRFTISSDNAKNTVYLQMNSLKPEDTAVYYCAAASGVGRYRYELQYDYWGQGTQVTVSS
notes: Tested as periplasmic extract
In the case of B24, in the assay with human serum albumin [1], the “Ratio pH 7/pH 5” value came to 3.88. The koff with human serum albumin [2] turned out to be 0.00171 s⁻¹; in the assay with human serum albumin [3] it was 0.000441 s⁻¹.
